Square brackets hold non-standard residues; d marks the D form. Ends that are not written are not given here. * marks the point of attachment. FITC = O=C1OC2(c3ccc(O)cc3Oc3cc(O)ccc32)c2ccc(NC(=S)*)cc21; Cha = N[C@@H](CC1CCCCC1)C(=O)O

For orientation: Kd means a measure of binding affinity in units of concentration. The low end stands for tighter binding, the high end for weaker binding.

Assay [1] addresses T1, E. coli sliding clamp (DnaN protein, β subunit of DNA polymerase III) (E. coli, UniProt P0A988 1-366).
T1 construct: Recombinant DnaN for ITC (a tag from pET15b is implied by the Ni-NTA step but not described); also called ^EcSC; SC
The experiment in a line: ITC, 30 °C, peptide titrated into E. coli SC.

The target in assay [2] is T2, E. coli 70S ribosome particle (E. coli).
T2 construct: also called ^Ec70S
As to the kind of experiment: ITC, 30 °C, peptide titrated into E. coli 70S ribosome; values not well defined (footnote *). A general note: In ITC the heat of successive injections is recorded.

Assay [3] concerns the target T2, E. coli 70S ribosome particle. As to the kind of experiment: ITC, 30 °C, against the same peptide on E. coli SC.
Assay [4] shares this target. The experiment in a line: ITC, 30 °C, peptide titrated into E. coli 70S ribosome.
Assay [5] has as its target T1, E. coli sliding clamp (DnaN protein, β …). The experiment in a line: ITC, 25 °C, E. coli SC (beta ring).
Assay [6] has the same target. The experiment in a line: ITC, 30 °C.
Assay [7] deals with T2, E. coli 70S ribosome particle. As to the kind of experiment: ITC, 30 °C as the table's head says, E. coli ribosome.
For assay [8] the target is unchanged. The experiment in a line: ITC, 30 °C, against Py on the 70S ribosome.
For assay [9] the target is unchanged. As to the kind of experiment: ITC, E. coli ribosome (70S).
For assay [10], the target named is T1, E. coli sliding clamp (DnaN protein, β …). As to the kind of experiment: ITC, 30 °C, E. coli SC.
The target in assay [11] is T3, Human PCNA (Proliferating Cell Nuclear Antigen) (Human, UniProt P12004 1-261).
T3 construct: Source and limits of the construct are not described
T3 sequence (P12004 whole entry): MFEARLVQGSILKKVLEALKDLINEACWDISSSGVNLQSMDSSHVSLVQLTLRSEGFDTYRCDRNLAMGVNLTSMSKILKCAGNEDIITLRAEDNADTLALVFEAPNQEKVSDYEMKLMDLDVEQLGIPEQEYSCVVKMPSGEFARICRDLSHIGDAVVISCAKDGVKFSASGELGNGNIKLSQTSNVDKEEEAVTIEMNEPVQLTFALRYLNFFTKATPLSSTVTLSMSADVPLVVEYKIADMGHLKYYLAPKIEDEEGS
As to the kind of experiment: ITC, 30 °C.

T1 sequence (P0A988 whole entry): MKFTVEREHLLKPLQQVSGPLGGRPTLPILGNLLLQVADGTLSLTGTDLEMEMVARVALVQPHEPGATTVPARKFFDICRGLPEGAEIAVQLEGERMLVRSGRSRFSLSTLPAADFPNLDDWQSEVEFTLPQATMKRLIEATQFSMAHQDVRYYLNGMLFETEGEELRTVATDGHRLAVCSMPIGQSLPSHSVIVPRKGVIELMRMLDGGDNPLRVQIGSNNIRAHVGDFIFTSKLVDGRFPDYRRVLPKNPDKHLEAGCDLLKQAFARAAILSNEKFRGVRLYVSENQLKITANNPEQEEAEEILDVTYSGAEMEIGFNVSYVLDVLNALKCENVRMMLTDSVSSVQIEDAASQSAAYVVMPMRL

Consider {FITC}-KVDKGSYLPRPTPPRPIYNRNGPRQ[Cha]DLF-OH (also called FITC-K-Py-P7; CA2-150) [P150 (FITC-Py-P7), FITC-…haDLF-OH], for which, in assay [1], the “-TΔS” value came to 8.21 kcal/mol; the affinity, expressed as Kd, was 390 nM; the ΔG was -8.99 kcal/mol; the ΔH was -17.2 kcal/mol. Further, in assay [2], the “-TΔS” value came out at 6.7 kcal/mol, the ΔG was -6.27 kcal/mol and the ΔH was -13 kcal/mol.

B1: P30 (Onc112-P7), VDKPPYLPRPRPPRrIYNrNGPRQChaDLF-OH (peptide)
peptide: VDKPPYLPRPRPPR[dR]IYN[dR]NGPRQ[Cha]DLF-OH
notes: Fusion of Onc112 and P7; the printed Mw 3472.08 agrees with that N; also called CA3-30; Onc-P7
Regarding B1, the “fold higher affinity for the ribosome than for SC” value in [3] amounted to 3 fold. Moreover, in assay [4], the “-TΔS” value is 15.7 kcal/mol; the affinity, expressed as Kd, was 70.4 nM; the ΔG is -9.92 kcal/mol; the ΔH is -25.6 kcal/mol. In [1], the “-TΔS” value is 4.2 kcal/mol, binding was put at a Kd of 205 nM, the ΔG is -9.28 kcal/mol and the ΔH is -13.5 kcal/mol. Moreover, in [5], the Kd is 180 nM, the n came to 0.9, the ΔG was -9.2 kcal/mol and the ΔH was -14.6 kcal/mol.
Regarding {FITC}-KVDKGSYLPRPTPPRPIYNRN-NH2 (ends and bridges not checked, also called FITC-K-Py; FITC-K-Pyr) [P122 (FITC-Py), FITC-KVDKGSYLPRPTPPRPIYNRN-NH2], the binding result in [6] is listed as “no binding”. Besides, in assay [2], the “-TΔS” value was determined as 13.3 kcal/mol, the ΔG is -6.91 kcal/mol and the ΔH is -20.1 kcal/mol.

B2: P116 (Py-P7), …haDLF-OH (peptide)
peptide: VDKGSYLPRPTPPRPIYNRNGPRQ[Cha]DLF-OH
modifications: N-terminus assumed
SMILES: CC[C@H](C)[C@H](NC(=O)[C@@H]1CCCN1C(=O)[C@H](CCCNC(=N)N)NC(=O)[C@@H]1CCCN1C(=O)[C@@H]1CCCN1C(=O)[C@@H](NC(=O)[C@@H]1CCCN1C(=O)[C@H](CCCNC(=N)N)NC(=O)[C@@H]1CCCN1C(=O)[C@H](CC(C)C)NC(=O)[C@H](Cc1ccc(O)cc1)NC(=O)[C@H](CO)NC(=O)CNC(=O)[C@H](CCCCN)NC(=O)[C@H](CC(=O)O)NC(=O)[C@@H](N)C(C)C)[C@@H](C)O)C(=O)N[C@@H](Cc1ccc(O)cc1)C(=O)N[C@@H](CC(N)=O)C(=O)N[C@@H](CCCNC(=N)N)C(=O)N[C@@H](CC(N)=O)C(=O)NCC(=O)N1CCC[C@H]1C(=O)N[C@@H](CCCNC(=N)N)C(=O)N[C@@H](CCC(N)=O)C(=O)N[C@@H](CC1CCCCC1)C(=O)N[C@@H](CC(=O)O)C(=O)N[C@@H](CC(C)C)C(=O)N[C@@H](Cc1ccccc1)C(=O)O
notes: Fusion of pyrrhocoricin, GPR linker and P7
For B2, the “fold higher affinity for the ribosome than for SC” value in assay [3] is 3 fold. Also, in assay [4], the “-TΔS” value is 12 kcal/mol, the Kd is 37 nM, the ΔG is -10.3 kcal/mol and the ΔH was -22.3 kcal/mol. Further, in [1], the “-TΔS” value turned out to be 4.3 kcal/mol, the Kd stood at 119 nM, the ΔG is -9.61 kcal/mol and the ΔH was -13.9 kcal/mol.
In the case of VDKPPYLPRPRPPR[dR]IYN[dR]-NH2 (also called CA3 28; CA3-28) [P28 (Onc112), VDKPPYLPRPRPPRrIYNr-NH2], in [4], the “-TΔS” value turned out to be 14 kcal/mol, binding was put at a Kd of 84 nM, the ΔG was -9.82 kcal/mol and the ΔH is -23.9 kcal/mol. Also, in assay [7], the Kd was found to be 241 nM, the ΔG is -9.2 kcal/mol and the ΔH is -16.2 kcal/mol. Also, the binding result in assay [6] is on record as “no binding”. In addition, the “fold lower affinity than Py” value in [8] came to 5 fold. In [9], this molecule registered a dissociation constant (Kd) of 241 nM, a n of 1, a ΔG of -9.2 kcal/mol and a ΔH of -16.2 kcal/mol.

B3: CM1-76 (P7-Onc112), AcQChaDLF-GPR-Onc112-NH2 (peptide)
peptide: Ac-Q[Cha]DLFGPRVDKPPYLPRPRPPR[dR]IYN[dR]-NH2
SMILES: CC[C@H](C)[C@H](NC(=O)[C@@H](CCCNC(=N)N)NC(=O)[C@H](CCCNC(=N)N)NC(=O)[C@@H]1CCCN1C(=O)[C@@H]1CCCN1C(=O)[C@H](CCCNC(=N)N)NC(=O)[C@@H]1CCCN1C(=O)[C@H](CCCNC(=N)N)NC(=O)[C@@H]1CCCN1C(=O)[C@H](CC(C)C)NC(=O)[C@H](Cc1ccc(O)cc1)NC(=O)[C@@H]1CCCN1C(=O)[C@@H]1CCCN1C(=O)[C@H](CCCCN)NC(=O)[C@H](CC(=O)O)NC(=O)[C@@H](NC(=O)[C@H](CCCNC(=N)N)NC(=O)[C@@H]1CCCN1C(=O)CNC(=O)[C@H](Cc1ccccc1)NC(=O)[C@H](CC(C)C)NC(=O)[C@H](CC(=O)O)NC(=O)[C@H](CC1CCCCC1)NC(=O)[C@H](CCC(N)=O)NC(C)=O)C(C)C)C(=O)N[C@@H](Cc1ccc(O)cc1)C(=O)N[C@@H](CC(N)=O)C(=O)N[C@H](CCCNC(=N)N)C(N)=O
In assay [5], B3 had a Kd of 258 nM, a n of 1, a ΔG of -9 kcal/mol and a ΔH of -10.7 kcal/mol.

B4: Py (Pyrrhocoricin), VDKGSYLPRPTPPRPIYNRN-NH2 (peptide)
peptide: VDKGSYLPRPTPPRPIYNRN-NH2
notes: Bought from Novopro; also called unglycosylated pyrrhocoricin
With B4, in assay [4], the “-TΔS” value worked out at 8.23 kcal/mol; the affinity, expressed as Kd, was 15.5 nM; the ΔG is -10.9 kcal/mol; the ΔH was -19.2 kcal/mol. For the same molecule, in assay [6], the binding result is reported as “no binding”.

B5: P7 (Ac-QChaDLF-OH) (peptide)
peptide: Ac-Q[Cha]DLF-OH
SMILES: CC(=O)N[C@@H](CCC(N)=O)C(=O)N[C@@H](CC1CCCCC1)C(=O)N[C@@H](CC(=O)O)C(=O)N[C@@H](CC(C)C)C(=O)N[C@@H](Cc1ccccc1)C(=O)O
notes: also called CA2 68; AcQXDLF
In the case of B5, in [10], binding was characterised by a dissociation constant (Kd) of 408 nM, the n turned out to be 1 and the ΔH was -12.1 kcal/mol. For the same molecule, in assay [1], the “-TΔS” value was 4.71 kcal/mol, the dissociation constant Kd turned out to be 332 nM, the ΔG was -9 kcal/mol and the ΔH was -13.7 kcal/mol. Besides, the binding result in assay [11] was “no binding”. In [5], this molecule showed a dissociation constant Kd of 170 nM, a n of 0.9, a ΔG of -9.2 kcal/mol and a ΔH of -15.4 kcal/mol.
In the case of {FITC}-KVDKGSYLPRPTPPRPIYNRNGPR[Cha]FQLD-OH (also called FITC-K-Py-P7Scr; CA4-72) [P72 (FITC-Py-P7Scr), FITC-…haFQLD-OH], the binding result in assay [6] was “no binding”. In addition, in [2], the “-TΔS” value amounted to 2.94 kcal/mol, the ΔG is -5.98 kcal/mol and the ΔH was -8.92 kcal/mol.

B6: P120 (Onc112-P7Scr), VDKPPYLPRPRPPRrIYNrNGPRChaFQLD-OH (peptide)
peptide: VDKPPYLPRPRPPR[dR]IYN[dR]NGPR[Cha]FQLD-OH
notes: Control fusion peptide with scrambled P7; also called Onc112-Scr
As for B6, in assay [4], the “-TΔS” value worked out at 3.12 kcal/mol, the dissociation constant (Kd) was found to be 101 nM, the ΔG is -9.85 kcal/mol and the ΔH was -13 kcal/mol. The binding result in assay [6] is recorded as “no binding”.

Values taken from patent US20220002344A1 (CENTRE NATIONAL DE LA RECHERCHE SCIENTIFIQUE, published 2022).
